# Earlier results as cited in publication PMC11070850.
# Molecular target: mucin 1 (UniProt P15941)
# Details: 10 mM MOPS, 100 mM NaNO3, pH 7.6, room temperature, 60 min (aptamer + mucin 1 + DNA nanospheres); then CuSO4 50 min and calcein 2 min
# Sequence of mucin 1 (P15941 24-1158): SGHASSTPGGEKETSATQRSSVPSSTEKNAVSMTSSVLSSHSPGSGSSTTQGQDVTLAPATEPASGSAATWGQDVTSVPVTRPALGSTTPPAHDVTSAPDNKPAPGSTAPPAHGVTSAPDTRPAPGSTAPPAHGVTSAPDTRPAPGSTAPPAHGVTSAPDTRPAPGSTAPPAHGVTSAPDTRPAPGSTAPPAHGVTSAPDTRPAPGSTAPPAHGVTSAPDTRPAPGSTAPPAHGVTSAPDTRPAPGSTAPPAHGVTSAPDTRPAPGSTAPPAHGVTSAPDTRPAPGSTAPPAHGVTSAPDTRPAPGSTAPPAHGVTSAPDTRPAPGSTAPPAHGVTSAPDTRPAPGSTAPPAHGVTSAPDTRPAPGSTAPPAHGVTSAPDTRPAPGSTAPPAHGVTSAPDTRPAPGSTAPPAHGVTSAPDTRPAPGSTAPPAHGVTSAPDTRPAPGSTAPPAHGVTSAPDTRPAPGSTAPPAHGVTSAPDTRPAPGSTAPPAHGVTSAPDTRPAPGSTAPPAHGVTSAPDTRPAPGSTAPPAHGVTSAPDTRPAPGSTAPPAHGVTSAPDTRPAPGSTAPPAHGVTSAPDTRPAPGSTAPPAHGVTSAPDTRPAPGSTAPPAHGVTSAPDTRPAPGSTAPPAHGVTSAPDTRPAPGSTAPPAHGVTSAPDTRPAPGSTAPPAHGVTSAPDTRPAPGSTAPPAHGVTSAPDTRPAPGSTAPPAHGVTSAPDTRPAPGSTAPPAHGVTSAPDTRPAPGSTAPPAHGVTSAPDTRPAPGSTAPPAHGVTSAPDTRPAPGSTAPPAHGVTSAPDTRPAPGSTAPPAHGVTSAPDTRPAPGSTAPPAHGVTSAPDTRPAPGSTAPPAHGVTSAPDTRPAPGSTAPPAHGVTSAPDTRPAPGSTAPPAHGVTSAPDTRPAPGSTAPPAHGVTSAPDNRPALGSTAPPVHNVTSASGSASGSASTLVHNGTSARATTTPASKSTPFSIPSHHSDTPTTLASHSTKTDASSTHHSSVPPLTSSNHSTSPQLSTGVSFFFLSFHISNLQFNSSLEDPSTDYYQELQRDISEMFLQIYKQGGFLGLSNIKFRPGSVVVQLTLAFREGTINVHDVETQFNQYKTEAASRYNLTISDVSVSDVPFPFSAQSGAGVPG
sequence,measurement,value
GCAGTTGATCCTTTGGATACCCTGG [mucin 1 aptamer],Kd,0.135 nM
